Assay results from article PMC3896865.
Read-outs that look alike come from different tables or passages of the source.

Assays:
Test in all cases: ITC
[1] = biological target: T1, EGR1 DB_WT (Zif268 DNA-binding domain) (human, UniProt P18146 331-430)
[2] = biological target: T1, EGR1 DB_WT (Zif268 DNA-binding domain); remark: listed apart in the source
[3] = biological target: T1, EGR1 DB_WT (Zif268 DNA-binding domain); remark: listed apart in the source
[4] = biological target: T1, EGR1 DB_WT (Zif268 DNA-binding domain); remark: listed apart in the source
[5] = biological target: T1, EGR1 DB_WT (Zif268 DNA-binding domain); remark: listed apart in the source
[6] = biological target: T1, EGR1 DB_WT (Zif268 DNA-binding domain); remark: listed apart in the source
[7] = biological target: T1, EGR1 DB_WT (Zif268 DNA-binding domain); remark: listed apart in the source
[8] = biological target: T1, EGR1 DB_WT (Zif268 DNA-binding domain); remark: listed apart in the source
[9] = biological target: T1, EGR1 DB_WT (Zif268 DNA-binding domain); remark: listed apart in the source
[10] = biological target: T1, EGR1 DB_WT (Zif268 DNA-binding domain); remark: listed apart in the source
EGR1 DB_H382K = EGR1 DB_H382K (human, UniProt P18146 331-430, H382K)
EGR1 DB_H382A = EGR1 DB_H382A (human, UniProt P18146 331-430, H382A)
EGR1 DB_H382E = EGR1 DB_H382E (human, UniProt P18146 331-430, H382E)
EGR1 DB_H382R = EGR1 DB_H382R (human, UniProt P18146 331-430, H382R)

B1: ZRE duplex (15-mer) (dsDNA)
DNA 1: ATAGCGTGGGCGTTT
DNA 2: AAACGCCCACGCTAT
In the case of B1, the Kd [1] is reported as 758 nM, the Kd [2] is reported as 324 nM and the Kd [3] is reported as 421 nM. For the same binder, the Kd [4] was 755 nM, the Kd [5] was 345 nM and the Kd [6] was 314 nM. For the same binder, the Kd [7] was 266 nM, the Kd [8] was 271 nM and the Kd [9] was 1330 nM. For the same binder, the Kd [10] was 1030 nM, the Kd (EGR1 DB_H382K) was 2260 nM and the Kd (EGR1 DB_H382A) was 1610 nM. The Kd (EGR1 DB_H382E) was 2300 nM and the Kd (EGR1 DB_H382R) was 2040 nM.
